Measurements taken from US20100199363A1, “ENZYMES FOR DEGRADING HERBICIDES” (priority 2006, published 2010).
Where two headings read alike, the source gives them in different places.

Assays:
[1] = system: GloxA; experiment: Substrate range of partially purified recombinant GloxA; type: biochemical, Arthrobacter sp. TBD; conditions: for Removal of substrate, Specific Activity: partially purified recombinant GloxA; for Removal of substrate, Relative Activity: relative to glyphosate = 100
Experimental: (§1) Crude enzyme extracts from E. coli cells were prepared as follows. Cells were harvested and the cell pellets resuspended in 1 mL lysis buffer (25 mM Tris-Cl pH 7.5 with 1 mgml^−1 lysosyme) and lysed by sonication on ice (Branson sonifier, 60% duty cycle, 30 seconds on, 30 seconds off for ten repeats). The soluble fraction was collected by centrifugation at 5000 g for 5 minutes and the protein content measured using Biorad protein dye-binding assay (BIORAD). Partially purified extracts were prepared by purification of the S-tagged or HIS-tagged GloxA protein from soluble CFE using S-protein agarose (Novagen) the Talon HIS-tag Purification System (BD Biosciences), according to manufacturer's instructions. Partially pure GloxA was eluted from the column using either 3M MgCl2 or 2.5 mM imidazole in the loading buffer. Enzyme reactions were prepared containing 500 μL crude enzyme extract or 250 μL partially purified enzyme extract (˜10 μg protein lysate) in 25 mM Tris-Cl pH7.5, 1 mM FAD, 0.1 mM MgCl2. After preincubation at 37° C. for 2 minutes, 1 mM glyphosate was added to the reaction, which was then incubated with shaking for a further 10-60 minutes. After the required reaction time, reactions were derivatized with tosyl chloride and analysed by HPLC as described above. All enzyme assays were performed in triplicate and repeated at least twice to confirm data. For determination of apparent kinetic parameters, substrate concentrations were varied over a suitable range, and the data fitted to a sum of exponential equations using Kaleidagraph (Synergy Software) or Hyper 1.1 (J. S. Easterby).

[2] = Resting cell biocatalytic assay of cells expressing recombinant GloxA; type: cell-based, E. coli
Experimental: (§2) Detection of glyphosate and AMPA by HPLC analysis was performed using a modified version of the method of Tomita et al. (1991) (Column: C18 4.6 uM, 5 Å column. Mobile Phase: 0.2MK2HPO4, 15% acetonitrile). Analytes were derivatized with tosyl chloride and detected at a wavelength of 240 nm. One ml of reaction supernatant was mixed with 0.5 mL 0.4MNaHPO4 pH 11.0, followed by addition of 200 μL tosyl chloride solution (10 mgmL^−1 p-toluene sulfonylchloride [Sigma] in acetonitrile). After incubation at 50° C. for 5 minutes, 20 μL of filtered reaction product was injected onto the HPLC for analysis.
The glyphosate-degrading protein was designated GloxA, and sub-cloning of gloxA into an expression vector and assaying for glyphosate-degrading activity confirmed cells expressing recombinant GloxA were able to degrade glyphosate, with resting cell biocatalytic assays having glyphosate-degrading activity of 300 μmol min^−1 mg wet cell mass^−1, and crude enzyme extracts having an activity of 841 μmolmin^−1mg total protein (Table 2). Of importance is that glycine was not detected as a product at this stage of the analysis of GloxA, and is presumed to have been rapidly metabolized by other enzymes contained within the E. coli resting cells and crude enzyme extract preparation.

[3] = GloxA enzyme assay with crude or partially purified extracts, HPLC after tosyl chloride derivatization; type: biochemical
Experimental: as §2, §1

[4] = Apparent kinetic parameters of GloxA, glyphosate as substrate; type: biochemical; conditions: herbicide glyphosate
Experimental: as §1, with “For determination of apparent kinetic parameters, substrate concentrations were varied over a suitable range, and the data fitted to a sum of exponential equations using Kaleidagraph (Synergy Software) or Hyper 1.1 (J. S. Easterby).” left out

[5] = Apparent kinetic parameters of GloxA, glufosinate as substrate; type: biochemical; conditions: herbicide glufosinate
Experimental: as §1, with “After preincubation at 37° C. for 2 minutes, 1 mM glyphosate was added to the reaction, which was then incubated with shaking for a further 10-60 minutes.” left out, “For determination of apparent kinetic parameters, substrate concentrations were varied over a suitable range, and the data fitted to a sum of exponential equations using Kaleidagraph (Synergy Software) or Hyper 1.1 (J. S. Easterby).” left out

[6] = Glyphosate degradation by GloxA-like homologous proteins, soluble cell-free extracts; type: biochemical; conditions: soluble cell-free protein extracts
From the text: Selected putative GloxA-like homologous proteins were then expressed and assayed for glyphosate degradative activity. The nucleotide coding sequences of selected putative homologues were commercially synthesised (Geneart, GmBH), cloned and expressed using the Champion pET200D/TOPO. Expression System (Invitrogen), according to manufacturer's instructions. Recombinant protein expression was verified and quantitated by Coomasie-stained SDS-PAGE analysis and spot-densitometry using AlphaImager 2200 visualization and documentation system (Alpha Innotech).
Enzymatic assays to assess glyphsate degradation were, performed using soluble cell-free protein extracts (partially purified protein) in a 1 ml volume containing 100 μg total cell-free protein (˜10 μg enzyme extract), 1 mM MgCl2, 1 mM glycine in 20 mM Tris-Cl pH 7.2. Negative controls included cell-free extracts from E. coli BL21 Star both containing no expression vector and containing pET200D/TOPO without an insert.

[7] = Side-by-side assay of GloxA and synthetic GOX extracts, glyphosate; type: biochemical; conditions: extracts assayed side-by-side, FIG. 4
Experimental: (§3) Crude enzyme extracts from E. coli cells were prepared as follows. Cells were harvested and the cell pellets resuspended in 1 mL lysis buffer (25 mM Tris-Cl pH 7.5 with 1 mgml^−1 lysosyme) and lysed by sonication on ice (Branson sonifier, 60% duty cycle, 30 seconds on, 30 seconds off for ten repeats). The soluble fraction was collected by centrifugation at 5000 g for 5 minutes and the protein content measured using Biorad protein dye-binding assay (BIORAD). Partially purified extracts were prepared by purification of the S-tagged or HIS-tagged GloxA protein from soluble CFE using S-protein agarose (Novagen) the Talon HIS-tag Purification System (BD Biosciences), according to manufacturer's instructions. […] After the required reaction time, reactions were derivatized with tosyl chloride and analysed by HPLC as described above. […]
(§4) For the purposes of direct comparison between the enzymes, a synthetic construct was made encoding the GOX gene based on SEQ ID NO:17 from U.S. Pat. No. 5,776,760. […] Soluble protein expression of GOX was optimized under varying temperature and IPTG conditions, and GOX protein expression detected by Coomasie-stained SDS-PAGE analysis and GOX enzymatic activity assayed as described above for GloxA, with HPLC analysis of activity to detect the removal of glyphosate and production of AMPA according to analytical methods above.

[8] = Side-by-side assay of GloxA and synthetic GOX extracts, iminodiacetic acid; type: biochemical; conditions: extracts assayed side-by-side, FIG. 4
Experimental: as §3, §4

[9] = system: A. thaliana var. Landsberg; experiment: Glyphosate tolerance of Arabidopsis plants expressing GloxA (Tolerance Score); type: in vivo, Arabidopsis thaliana; conditions: five times the normal dose (12.5 kga.i.ha^−1), Day 8 post-application of herbicide
From the text: FIG. 5. […] To obtain the Tolerance Score, plants were visually assessed for leaf health, plant radius and flowering on Day 8 post-application of herbicide. Untreated controls in perfect health scored 7-8 under the same system.
T1 seedlings can be transplanted and cultivated for seed through two generations to eventually isolate the homozygous T3 seeds. T2 and T3 plants were then screened for increased resistance to glyphosate, essentially using the methods described by Jander et al. (2003), but with A. thaliana var. Landsberg, not Columbia, and using treatment doses ranging from 2.5-25 kg a.i. ha^−1. The scores given in FIG. 5 are for a dose of 5× the expected I100 dose (12.5 kga.i.ha^−1)

[10] = GloxA enzyme assay with crude or partially purified extracts, HPLC after tosyl chloride derivatization; type: biochemical; conditions: for Glyphosate Removal: partially purified GloxA
[11] = herbicide glyphosate; Siehl et al. (2005), WO 92/00377; cited from earlier work
[12] = wildtype GOX, U.S. Pat. No. 5,776,760; cited from earlier work

## NCP(=O)(O)O [AMPA, aminomethylphosphonic acid]
[1]
  Removal of substrate, Specific Activity: 602 μmolmin^−1 mg^−1
  Removal of substrate, Relative Activity: 71%

## O=C(O)CNCP(=O)(O)O [glyphosate, N-(phosphonomethyl)glycine]
[1]
  Removal of substrate, Specific Activity: 841 μmolmin^−1 mg^−1
  Removal of substrate, Relative Activity: 100%

## O=C(O)CNCC(=O)O [iminodiacetic acid]
[1]
  Removal of substrate, Specific Activity: 5013 μmolmin^−1 mg^−1
  Removal of substrate, Relative Activity: 598%

B1: GloxA: 473 amino acid glyphosate-degrading putative oxidoreductase from Arthrobacter sp. TBD, SEQ ID NO:1 (protein)
chain: VKTTVFERNVPQTAVVSHALAGAAHRPYWIDHLQDSATRYPQLDGDAAADLVIVGGGYTGLWTALRAKERDPGRTVILLEGEQVAWAASGRNGGFCEASLTHGHENGKNRWPDELETLDRLGMENLDRMQEAVEKYAMDCEWERTGELNVAVEPHQVAWLQEDDTPGSVFLDQDAVRAEVNSPTYLAGRWHKDSVAMVHPYKLGLELARVATELGVVIYEGTRVRELNDHEHGVTVVTERGIVEAGHVVLGTNVFPSLLKRNQLMTVPVYDYALMTEPLTAEQLESIGWGKRQGIGDVANQFHYYRITKDHRILFGGYDALYFWGRRVDQKHEHQPATWEKIASHFFTTFPQLEGLKFTHKWAGPIDSSTQFCAFFGTARKGRVAYAAGFTGLGVGATAFAADVLLDLLAGLDTERTRLEMVRKRPLPFPPEPLASLGINLTRWSMDRADHNQGKRNIILKALDAVGLGFDS
modifications: Arthrobacter sp. TBD
[2]
  Catalytic Activity, Removal of glyphosate: 300 μmolmin^−1 mg^−1 wet cell mass
[3]; Crude enzyme extract, approximate value
  Specific Activity, Removal of glyphosate: 841 μmolmin^−1 mg^−1 protein
[3]; E. coli resting cells and crude enzyme extract preparation
  glycine as a product: not detected
[3]; PPE + FAD + Mg^2+
  Specific Activity, Production of glycine: 548 μmolmin^−1 mg^−1 protein
[3]; crude extracts and partially purified GloxA
  production of AMPA from glyphosate: no production
[3]; partially purified GloxA, Std (Mg^2+)
  Glyphosate Removal: 856 µmol/min/mg
[3]; partially purified enzyme extract, PPE + FAD + Mg^2+
  Specific Activity, Removal of glyphosate: 1590 μmolmin^−1 mg^−1 protein
[4]
  Kcat: 179.97 s⁻¹
  Km: 56 µM
[5]
  Kcat: 158.9 s⁻¹
  Km: 1200 µM
[6]
  Partially Purified Activity [glyphosate degradation]: 841 µmol/min/mg
[7]
  specific activity towards glyphosate compared with GOX: almost two fold higher
[8]
  specific activity towards iminodiacetic acid compared with GOX: 0.9 times less
[9]
  tolerance to glyphosate (Tolerance Score): confers tolerance
[10]; PPE + FAD − Mg^2+
  Specific Activity, Production of glycine: 413 μmolmin^−1 mg^−1 protein
  Specific Activity, Removal of glyphosate: 838 μmolmin^−1 mg^−1 protein
[10]; PPE − FAD + Mg^2+
  Specific Activity, Production of glycine: 562 μmolmin^−1 mg^−1 protein
  Specific Activity, Removal of glyphosate: 1450 μmolmin^−1 mg^−1 protein
[10]; Co^2+
  Glyphosate Removal: 1076 µmol/min/mg
[10]; No FAD
  Glyphosate Removal: 520 µmol/min/mg
[10]; No Metals (+EDTA)
  Glyphosate Removal: 432 µmol/min/mg
[10]; Zn^2+
  Glyphosate Removal: 624 µmol/min/mg

B2: GOX: Glyphosate oxidoreductase producing AMPA and glyoxylate from glyphosate, SEQ ID NO:3 (protein)
chain: MSENHKKVGIAGAGIVGVCTALMLQRRGFKVTLIDPNPPGEGASFGNAGCFNGSSVVPMSMPGNLTSVPKWLLDPMGRCQSGSAISNHHAWLIRFLLAGRPNKVKEQAKALRNLIKSTVPLIKSLAEEADASHLIRHEGHLTVYRGEADFAKDRGGWELRRLNGVRTQILSADALRDFDPNLSHAFTKGILIEENGHTINPQGLVTLLFRRFIANGGEFVSARVIGFETEGRALKGITTTNGVLAVDAAVVAAGAHSKSLANSLGDDIPLDTERGYHIVIANPEAAPRIPTTDASGKFIATPMEMGLRVAGTVEFAGLTAAPNWKRAHVLYTHARKLLPALAPASSEERYSKWMGFRPSIPDSLPVIGRATRTPDVIYAFGHGHLGMTGAPMTATLVSELLAGEKTSIDISPFAPNRFGIGKSKQTGPAS
modifications: Pseudomonas sp. LBAA
[11]
  Kcat: 0.667 s⁻¹
  Km: 25000 to 28000 µM
[12]
  specific activity: 15 nmolmin^−mg^−1
